The text below walks through data of paper PMC9156751, “Dynamic arrest and aging of biomolecular condensates are modulated by low-complexity domains, RNA and biochemical activity” (Nature Communications, 2022).

This data set concerns the molecule itself. The experiment in a line: dynamic light scattering; 5 µM Dhh1 with an excess of 5 mM ATP/MgCl2, no RNA; reference buffer 90 mM KCl, 30 mM HEPES-KOH pH 7.4, 2 mM MgCl2; Zetasizer Nano ZS, 173° backscattering; combined with microscopy.

B1: mCherry-tagged Dhh1^48–425 (domain or fragment, yeast, UniProt P39517 48-425, looked up)
chain: FEDFYLKRELLMGIFEAGFEKPSPIQEEAIPVAITGRDILARAKNGTGKTAAFVIPTLEKVKPKLNKIQALIMVPTRELALQTSQVVRTLGKHCGISCMVTTGGTNLRDDILRLNETVHILVGTPGRVLDLASRKVADLSDCSLFIMDEADKMLSRDFKTIIEQILSFLPPTHQSLLFSATFPLTVKEFMVKHLHKPYEINLMEELTLKGITQYYAFVEERQKLHCLNTLFSKLQINQAIIFCNSTNRVELLAKKITDLGYSCYYSHARMKQQERNKVFHEFRQGKVRTLVCSDLLTRGIDIQAVNVVINFDFPKTAETYLHRIGRSGRFGHLGLAINLINWNDRFNLYKIEQELGTEIAAIPATIDKSLYVAENDET
notes: DEAD-box ATPase Dhh1 of yeast, residues 48-425: the two RecA domains without the N- and C-terminal low-complexity domains; also called tail-less Dhh1^48–425; LCD-lacking variant; source: E. coli BL21-Gold (DE3), purified (Ni2+ Chelating Sepharose, Superdex 75 SEC)
As to B1, the binding result was “binds”.
